± gives the standard error. Fewer inactive variants are shown than the library holds.
B1: glmS ribozyme (parent)
chain: AUAAAAGCGCCAGAACUACAGAAAUGUAGUUGACGAGGAGGAGGUUUAUCGAAUUUUCGGCGGAUGCCUCCAAA

Variants of: B1
Test: self-cleavage kobs at 640 uM GlcN6P; higher = faster cleavage; RNA array
Conditions: with glucosamine-6-phosphate
How it was run: (§1)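 Over ~14 h at 37 °C, tiles were imaged as glucosamine-6-phosphate (40 μM to 10 mM) in HEPES/KCl/Mg(OAc)2 buffer flowed across sequenced MiSeq chips. The chips carried barcoded ribozyme variants transcribed in situ by E. coli RNA polymerase and tracked with a hybridised Cy3 probe. After normalisation to baseline and to non-cleaving reference variants, one- or two-exponential decay fits of per-tile medians gave kobs. kcat and KM followed from weighted Michaelis–Menten fits across concentrations.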

AUAAAAGGGCCACAACUACAGAAAUGUAGUUGACGAGGAGGAGGUUUAUCGUUUUUUCGGCGGAUGCCUCUAAA and AUAAAAGCGCCAGAACUACAGAAAUGUAGAUGACGAGGAGGAAGUUUAUCGAAUUUUCGGCGGAUGCCUCCAAA cannot be ordered by “self-cleavage kobs at 640 uM GlcN6P” value: < 1e-05 s⁻¹ for the first, < 1e-05 s⁻¹ for the second.

AUAAAAGCGCCAGAUCUACAGAAAUGUAGUUGACCAGGAGGAGGUUUAUUGAAUUUUCGGCGGAUGCCUCCAAA and AUAAAAGCGCCAGAACUACAGAAAUGUAGUUGACGUGGAGGAGGUUUAUCGGAUUUUCGGCCGAUGCCUCAAAA cannot be ordered by “self-cleavage kobs at 640 uM GlcN6P” value: < 1e-05 s⁻¹ for the first, < 1e-05 s⁻¹ for the second.

AUAAAAGCACCAGAAUUACAGAAAUGUAGGUGACGAGUAGGAGGUUUAUCGAAUUUUCGGCGGAUGCCUCCAAA and AUAAAAGCGCCAGAACUACAGAAAUGUAGUUGACAAGGAGUAGGUUUAUCGAACUUUCGGCGGAUGCCUCCAAA cannot be ordered by “self-cleavage kobs at 640 uM GlcN6P” value: < 1e-05 s⁻¹ for the first, < 1e-05 s⁻¹ for the second.

AUAAAAGCGCCAGAACUACAGAAAUGUAGUUGAUGAGGAGGGGGUUUAUCGAAUUUUUGGCGGGGGCCUCCAAA and AUAAAAGCGCCAGAACUACAGAAAUGUAGUUGACGAGUAGGAGCUUUAUCGAAUUCUCGGCGGAUGCCUCCAAA cannot be ordered by “self-cleavage kobs at 640 uM GlcN6P” value: < 1e-05 s⁻¹ for the first, < 1e-05 s⁻¹ for the second.

First: AUAAAAGCGCCAAAACUACAGAAAUGUAGUGGUCGAGGAGGAGGUUUAUCGAAUUUUCGGCGGAUGCCUCCAAA
Second: AUAAAAGCGCCUGAAUUACAGAAAUGUAGUUGCCGAGGAGGAGGUUUAUCGAAUUUUCGGCGGAUGCCUCCAAA
The “self-cleavage kobs at 640 uM GlcN6P” value of the first is lower: < 1e-05 s⁻¹ for the first, 0.000251 ± 4.5e-05 s⁻¹ for the second.

AUAAAUGCGCCAGAACUACAGAAAUGUAGUUGACGAGCAGGAGGUUUAUCGAAUUUUCGGUGGAUGCCUCCAAA and AUAAAUGCGCCAGAACUACAGAAAUGUAGUUGAUGAGGACGAGGUUUAUCGAAUUUUCCGCGGAUGCCUCCAAA cannot be ordered by “self-cleavage kobs at 640 uM GlcN6P” value: < 1e-05 s⁻¹ for the first, < 1e-05 s⁻¹ for the second.

AUAAAAGCGCCAGAACUACAGAAAUGUAGUUGACUAGGAGGGGGUUUUUCGAAUUUUCGGCGGAUGCCUCCAAA and AUAAAAGCGCCAGAACUACAGAAAUGUAGUUGACGAGUAGGGGGUUUAUCGAUUUUUCGGCGGAUGCCUCCAAA cannot be ordered by “self-cleavage kobs at 640 uM GlcN6P” value: < 1e-05 s⁻¹ for the first, < 1e-05 s⁻¹ for the second.

AUAAAAGCGCCAGAACUACAGAAAUGUAGAUAACGAUGAGGAGGUUUACCGAAUUUUCGGCGGUUGCCUCCAAA and AUAAAAGCGCCAGAACUACAGAAAUGUAGUUGACGAGGAGGAGGUGUAUCGAAUUUUCGGCCGAUGCCUCCAAA cannot be ordered by “self-cleavage kobs at 640 uM GlcN6P” value: < 1e-05 s⁻¹ for the first, < 1e-05 s⁻¹ for the second.

AUAAAAGCGCCAGAACUACAGAAAUGUAGUUUAAGAGGAGGAGGUUUAUCGAAUUUUCGGCGGAUGCCUCCAAA and AUAAAAGCGCAAUAACUACAGAAAUGUAGUUGACGAGGAGGAGGUUUAUCGAAUUUUAGGCCGAUGCCUCCAAA cannot be ordered by “self-cleavage kobs at 640 uM GlcN6P” value: < 1e-05 s⁻¹ for the first, < 1e-05 s⁻¹ for the second.

Compared with AUAAAAGGGCCAGAACUACAGAAAUGUAAUUGACGAGGAGGAGGUUUAUCCAAUUUUCUGCGGAUGCCUCCAAA, AUAAAAGCGCCAUAACUACAGAAAUGUAGUUGACGAGGAGGAGGUUUAUCGAAUUAUCGGCGGAUGCCUCUAAA is higher in “self-cleavage kobs at 640 uM GlcN6P” value: < 1e-05 s⁻¹ for the first, 0.000105 ± 1.6e-05 s⁻¹ for the second.

AUAAAAGCGCCAGAACUACAGAAAUGUAGUUGACGAGGACGAGGUUUGUCGAAUUGUCUGCGGCUGCCUGCAAA and AUAAAAGCGCCAGAACUACAGAAAUGUAGUUGAAGAGGAGCAGGUUUAUCGAAUUUUCGGCGGAUGCCUUCAAA cannot be ordered by “self-cleavage kobs at 640 uM GlcN6P” value: < 1e-05 s⁻¹ for the first, < 1e-05 s⁻¹ for the second.

AUAAAAGCGCCAGAACUACAGAAAUGUAUUUGACGAGGUGUAGGUUUAUCGAAUUUUCGGCGGAGGCCUCCAAA and AUAAAAGCGCCAGAACUACAGAAAUGUAGUUGAAAAGGAGGAGGUUUAUCGAAUUUUCGGCGGAGGCCUCCAAA cannot be ordered by “self-cleavage kobs at 640 uM GlcN6P” value: < 1e-05 s⁻¹ for the first, < 1e-05 s⁻¹ for the second.

Variants of: B1
Test: self-cleavage kobs at 10000 uM GlcN6P; higher = faster cleavage; RNA array
Conditions: with glucosamine-6-phosphate
How it was run: as §1

AUAAAAGGGCCACAACUACAGAAAUGUAGUUGACGAGGAGGAGGUUUAUCGUUUUUUCGGCGGAUGCCUCUAAA and AUAAAAGCGCCAGAACUACAGAAAUGUAGUUGACGAGGAGGAGGUGUAUCGAAUUUUCGGCCGAUGCCUCCAAA cannot be ordered by “self-cleavage kobs at 10000 uM GlcN6P” value: < 1e-05 s⁻¹ for the first, < 1e-05 s⁻¹ for the second.

With AUAAAAGCGCCAGAACUACAGAAAUGUAGUUUAAGAGGAGGAGGUUUAUCGAAUUUUCGGCGGAUGCCUCCAAA the “self-cleavage kobs at 10000 uM GlcN6P” value was < 1e-05 s⁻¹.

Variants of: B1
Test: self-cleavage kobs at 2500 uM GlcN6P; higher = faster cleavage; RNA array
Conditions: with glucosamine-6-phosphate
How it was run: as §1

AUAAAAGCACCAGAAUUACAGAAAUGUAGGUGACGAGUAGGAGGUUUAUCGAAUUUUCGGCGGAUGCCUCCAAA and AUAAAAGCGCCAGAACUACAGAAAUGUAGUUGACAAGGAGUAGGUUUAUCGAACUUUCGGCGGAUGCCUCCAAA cannot be ordered by “self-cleavage kobs at 2500 uM GlcN6P” value: < 1e-05 s⁻¹ for the first, < 1e-05 s⁻¹ for the second.

AUAAAAGCGCCAGAACUACAGAAAUGUAGUUGAUGAGGAGGGGGUUUAUCGAAUUUUUGGCGGGGGCCUCCAAA and AUAAAAGCGCCAGAACUACAGAAAUGUAGUUGACGAGUAGGAGCUUUAUCGAAUUCUCGGCGGAUGCCUCCAAA cannot be ordered by “self-cleavage kobs at 2500 uM GlcN6P” value: < 1e-05 s⁻¹ for the first, < 1e-05 s⁻¹ for the second.

Going from AUAAAAGCGCCAAAACUACAGAAAUGUAGUGGUCGAGGAGGAGGUUUAUCGAAUUUUCGGCGGAUGCCUCCAAA to AUAAAAGCGCCUGAAUUACAGAAAUGUAGUUGCCGAGGAGGAGGUUUAUCGAAUUUUCGGCGGAUGCCUCCAAA, the “self-cleavage kobs at 2500 uM GlcN6P” value rises from < 1e-05 s⁻¹ to 0.000381 ± 7.2e-05 s⁻¹.

Compared with AUAAAAGCGCCAGAACUACAGAAAUGUAGUUUAAGAGGAGGAGGUUUAUCGAAUUUUCGGCGGAUGCCUCCAAA, AUAAAAGCGCCAUAACUACAGAAAUGUAGUUGACGAGGAGGAGGUUUAUCGAAUUAUCGGCGGAUGCCUCUAAA is higher in “self-cleavage kobs at 2500 uM GlcN6P” value: < 1e-05 s⁻¹ for the first, 8.21e-05 ± 2.1e-05 s⁻¹ for the second.

In the case of AUAAAAGCGCCAGAACUACAGAAAUGUAUUUGACGAGGUGUAGGUUUAUCGAAUUUUCGGCGGAGGCCUCCAAA, the “self-cleavage kobs at 2500 uM GlcN6P” value is reported as < 1e-05 s⁻¹.

From the supplement of paper PMC7125110
